Reference: IntAct's records for PubMed 30026228

B1: Zinc fingers and homeoboxes protein 2 (Homo sapiens), Q9Y6X8 (parent)
chain: MASKRKSTTPCMVRTSQVVEQDVPEEVDRAKEKGIGTPQPDVAKDSWAAELENSSKENEVIEVKSMGESQSKKLQGGYECKYCPYSTQNLNEFTEHVDMQHPNVILNPLYVCAECNFTTKKYDSLSDHNSKFHPGEANFKLKLIKRNNQTVLEQSIETTNHVVSITTSGPGTGDSDSGISVSKTPIMKPGKPKADAKKVPKKPEEITPENHVEGTARLVTDTAEILSRLGGVELLQDTLGHVMPSVQLPPNINLVPKVPVPLNTTKYNSALDTNATMINSFNKFPYPTQAELSWLTAASKHPEEHIRIWFATQRLKHGISWSPEEVEEARKKMFNGTIQSVPPTITVLPAQLAPTKVTQPILQTALPCQILGQTSLVLTQVTSGSTTVSCSPITLAVAGVTNHGQKRPLVTPQAAPEPKRPHIAQVPEPPPKVANPPLTPASDRKKTKEQIAHLKASFLQSQFPDDAEVYRLIEVTGLARSEIKKWFSDHRYRCQRGIVHITSESLAKDQLAIAASRHGRTYHAYPDFAPQKFKEKTQGQVKILEDSFLKSSFPTQAELDRLRVETKLSRREIDSWFSERRKLRDSMEQAVLDSMGSGKKGQDVGAPNGALSRLDQLSGAQLTSSLPSPSPAIAKSQEQVHLLRSTFARTQWPTPQEYDQLAAKTGLVRTEIVRWFKENRCLLKTGTVKWMEQYQHQPMADDHGYDAVARKATKPMAESPKNGGDVVPQYYKDPKKLCEEDLEKLVTRVKVGSEPAKDCLPAKPSEATSDRSEGSSRDGQGSDENEESSVVDYVEVTVGEEDAISDRSDSWSQAAAEGVSELAESDSDCVPAEAGQA

Variants of: B1
Conditions: with vhl_human VHL

Row | effect of a mutation on the interaction | Variant
1 | decreasing interaction strength | P440A
2 | decreasing interaction strength | P464A

Second part, the variant before the results:

Row | Variant | effect of a mutation on the interaction
3 | P427A | decreasing interaction strength
4 | P427A;P440A;P464A | disrupting interaction strength
